B1: SALM3 LRR-Ig_(17-367) (domain or fragment, mouse, UniProt Q80XU8 17-367, looked up)
chain: CPLPCVCQNLSESLSTLCAHRGLLFVPPNVDRRTVELRLADNFIQALGPPDFRNMTGLVDLTLSRNAITRIGARSFGDLESLRSLHLDGNRLVELGSSSLRGPVNLQHLILSGNQLGRIAPGAFDDFLDSLEDLDVSYNNLRQVPWAGIGSMPALHTLNLDHNLIDALPPGVFAQLSQLSRLDLTSNRLATLAPDPLFSRGRDAEASPSPLVLSFSGNPLHCNCELLWLRRLARPDDLETCASPPTLAGRYFWAVPEGEFSCEPPLIARHTQRLWVLEGQRATLRCRALGDPVPTMHWVGPDDRLVGNSSRAWAFPNGTLEIGVTGAGDAGAYTCIATNPAGEATARVELR
B2: SALM1 LRR-Ig-Fn_(20-518) (domain or fragment, mouse, UniProt Q80TG9 20-518, looked up)
chain: ACPKYCVCQNLSESLGTLCPSKGLLFVPPDIDRRTVELRLGGNFIIHIGRQDFANMTGLVDLTLSRNTISHIQPFSFLDLESLRSLHLDSNRLPSLGEDTLRGLVNLQHLIVNNNQLGGIADDAFEDFLLTLEDLDLSYNNLHGLPWDSVRRMVNLHQLSLDHNLLDHIAEGTFADLQKLARLDLTSNRLQKLPPDPIFARSQASLLTATPFAPPLSFSFGGNPLHCNCELLWLRRLERDDDLETCGSPGSLKGRYFWHIREEEFVCEPPLITQHTHKLLVLEGQAATLKCKAIGDPSPLIHWVAPDDRLVGNSSRTAVYDNGTLDILITTSQDSGPFTCIAANAAGEATATVEVSIVQLPHLSNSTSRMAPPKSRLSDITGSSKTSRGGGGSGAGEPPKSTPERAVLVSDVTTTSALVKWSVSKSAPRVKMYQLQYNCSDDEVLIYRMIPASNKAFVVNNLVSGTGYDLCVLAMWDDTATTLTATNIVGCAQFFTKAD
B3: SALM3 LRR-Ig-Fn_(17-510) (domain or fragment, mouse, UniProt Q80XU8 17-510, looked up)
chain: CPLPCVCQNLSESLSTLCAHRGLLFVPPNVDRRTVELRLADNFIQALGPPDFRNMTGLVDLTLSRNAITRIGARSFGDLESLRSLHLDGNRLVELGSSSLRGPVNLQHLILSGNQLGRIAPGAFDDFLDSLEDLDVSYNNLRQVPWAGIGSMPALHTLNLDHNLIDALPPGVFAQLSQLSRLDLTSNRLATLAPDPLFSRGRDAEASPSPLVLSFSGNPLHCNCELLWLRRLARPDDLETCASPPTLAGRYFWAVPEGEFSCEPPLIARHTQRLWVLEGQRATLRCRALGDPVPTMHWVGPDDRLVGNSSRAWAFPNGTLEIGVTGAGDAGAYTCIATNPAGEATARVELRVLALPHGGNTSAEGGRPGPSDIAASARTAAEGEGTLESEPAVQVTEVTATSGLVSWGLGRPADPVWMFQIQYNSSEDETLIYRIVPASSHHFLLKHLVPGADYDLCLLALSPAAGPSDLTATRLLGCAHFSTLPATPLCHALQ
B4: SALM5 LRR-Ig_(18-376) (domain or fragment, mouse, UniProt Q8BXA0 18-376, looked up)
chain: QICPKRCVCQILSPNLATLCAKKGLLFVPPNIDRRTVELRLADNFVTNIKRKDFANMTSLVDLTLSRNTISFITPHAFADLRNLRALHLNSNRLTKITNDMFSGLSNLHHLILNNNQLTLISSTAFDDVFALEELDLSYNNLETIPWDAVEKMVSLHTLSLDHNMIDNIPKGTFSHLHKMTRLDVTSNKLQKLPPDPLFQRAQVLATSGIISPSTFALSFGGNPLHCNCELLWLRRLSREDDLETCASPALLTGRYFWSIPEEEFLCEPPLITRHTHEMRVLEGQRATLRCKARGDPEPAIHWISPEGKLISNATRSLVYDNGTLDILITTVKDTGAFTCIASNPAGEATQTVDLHIIK

Legend:
[1] = target: Fc-tagged SALM3 LRR-Ig-Fn (mouse) (UniProt Q80XU8); assay: SPR
SEC-MALS = target: the molecule itself; assay: SEC-MALS
[2] = target: RPTPσ Ig1-3meB_(33-331) (mouse) (UniProt B0V2N1); assay: SEC-MALS

| Molecule | fold lower affinity than for RPTPσ-meB [1] [fold] | stoichiometry N (SEC-MALS) | stoichiometry N (SALM3 per RPTPσ (2:1)) [2] |
| --- | --- | --- | --- |
| PTPσ Ig1-3_(33-327) (from UniProt B0V2N1 33-327) (domain or fragment) | 10 |  |  |
| B1 |  | 2 | 2 |
| B2 |  | 2 |  |
| B3 |  | 2 |  |
| B4 |  | 2 |  |

From publication doi:10.1101/225821 (bioRxiv, 2017)
